This is an account of results in patent publication US20060263345A1, “Butyrylcholinesterase variant polypeptides with increased catalytic efficiency and methods of use” (priority 2003, published 2006).

Series [1] is described as follows: microtiter isotope tracer [3H]-cocaine hydrolysis assay of immobilized butyrylcholinesterase variants. It is filed as biochemical. As to conditions: for increase in cocaine hydrolysis activity relative to butyrylcholinesterase: compared to human butyrylcholinesterase SEQ ID NO: 44, approximate values; for Relative Activity of butyrylcholinesterase variants (WT = 1) with enhanced cocaine hydrolase activity: relative to wild-type = 1, catalytic efficiency (Vmax/Km), [3H]-cocaine microtiter assay; for cocaine hydrolysis activity compared to butyrylcholinesterase (in words): compared to human butyrylcholinesterase. The text has this:
At the conclusion of the isotope tracer assay, an aliquot of the reaction mix is acidified in order to take advantage of the solubility difference between the product and the substrate at pH 3.0. […] Prospect, Ill.) while [3H]-cocaine is not.
The supernatants isolated from each of the butyrylcholinesterase variant library clones contains variable butyrylcholinesterase enzyme concentrations.
At least three approaches are used to either increase the assay sensitivity or the assay signal.
Km values for (−)-cocaine are determined at 37° C. Vmax and Km values are calculated using Sigma Plot (Jandel Scientific, San Rafael, Calif.). The number of active sites of butyrylcholinesterase is determined by the method of residual activity using echothiopate iodide or diisopropyl fluorophosphates as titrants, as described previously by Masson et al., Biochemistry 36: 2266-2277 (1997). […] Purified human butyrylcholinesterase is used as the standard for the ELISA quantitation assay. The catalytic rate constant, kcat, is calculated by dividing Vmax by the concentration of active sites.

In the next series the test system is cocaine-induced toxicity. Nature of the series: in vivo cocaine toxicity, cocaine infusion 30 mg/kg in cannulated rats. As to conditions: rat; for effect of therapeutic treatment on cocaine-induced toxicity: FIG. 9; for effect of pre-treatment on cocaine-induced toxicity: i.v. 0.1-0.5 mg/kg, 1 minute before cocaine 2 mg/kg/min for 15 minutes, Chi-squared test p<0.001, FIG. 8. The procedure:
Briefly, unilateral/bilateral jugular cannulations were performed under isoflurane anesthesia (max. 20 min) on 350 g male :Sprague Dawley®SD® rats (Harlan Sprague Dawley, Inc.) The animals were allowed to recover for 24 hours before studies commenced. […] One minute later, the cannula was connected to an infusion pump (Harvard Apparatus) and cocaine (HCI salt) was infused at 6 mls/hr (2 mg/kg/min) for 15 minutes corresponding to a total dose equal to 30 mg/kg. The time-to-onset for slight convulsions, strong convulsions and death were recorded. […] In a second series of studies, 0.5 mg/kg of the A328W/Y332M/S287G/F227A variant was administered at various time points after initiation of the 30mglkg cocaine infusion and gross observations recorded.
The variant was administered at the indicated doses, 1 minute prior to infusion of 30 mg/kg cocaine (2 mg/kg/min for 15 minutes).

“Also recorded” adds a separate entry of the source.

B1: A328W/Y332M/S287G/F227A (protein)
chain: EDDIIIATKNGKVRGMNLTVFGGTVTAFLGIPYAQPPLGRLRFKKPQSLTKWSDIWNATKYANSCCQNIDQSFPGFHGSEMWNPNTDLSEDCLYLNVWIPAPKPKNATVLIWIYGGGFQTGTSSLHVYDGKFLARVERVIVVSMNYRVGALGFLALPGNPEAPGNMGLFDQQLALQWVQKNIAAFGGNPKSVTLFGESAGAASVSLHLLSPGSHSLFTRAILQSGSANAPWAVTSLYEARNRTLNLAKLTGCSRENETEIIKCLRNKDPQEILLNEAFVVPYGTPLGVNFGPTVDGDFLTDMPDILLELGQFKKTQILVGVNKDEGTWFLVMGAPGFSKDNNSIITRKEFQEGLKIFFPGVSEFGKESILFHYTDWVDDQRPENYREALGDVVGDYNFICPALEFTKKFSEWGNNAFFYYFEHRSSKLPWPEWMGVMHGYEIEFVFGLPLERRDNYTKAEEILSRSIVKRWANFAKYGNPNETQNNSTSWPVFKSTEQKYLTLNTESTRIMTKLRAQQCRFWTSFFPKVLEMTGNIDEAEWEWKAGFHRWNNYMMDWKNQFNDYTSKKESCVGL
modifications: Butyrylcholinesterase variant
With B1, the “increase in cocaine hydrolysis activity relative to butyrylcholinesterase” value in series [1] is “one-hundred”. The “effect of therapeutic treatment on cocaine-induced toxicity” value in the series with cocaine-induced toxicity (0.5 mg/kg administered at 8 minutes into the 30 mg/kg cocaine infusion (after first slight convulsions)) is “full protection”; with cocaine-induced toxicity (0.5 mg/kg administered at later time points than 8 minutes, 0.5 mg/kg), “decreased in ability to protect”; in the series on cocaine-induced toxicity (0.5 mg/kg administered at later time points than 8 minutes, listed as AME-359, 0.5 mg/kg), “decreased in ability to protect”. The “effect of pre-treatment on cocaine-induced toxicity” value is “decreasing cocaine-toxicity; also recorded: statistically significant protection against cocaine” in the series on cocaine-induced toxicity and “statistically significant protection against cocaine” in the series on cocaine-induced toxicity (listed as AME-359). For the same molecule, the “time-of-onset of symptoms associated with cocaine-induced toxicity” value in the series on cocaine-induced toxicity (pre-treatment 1 minute before 30 mg/kg cocaine infusion, FIG. 12) is reported as “delaying the time-of-onset of symptoms”.

B2: A328W (protein, UniProt P06276 29-602, looked up, variant A328W)
Cholinesterase: EDDIIIATKNGKVRGMNLTVFGGTVTAFLGIPYAQPPLGRLRFKKPQSLTKWSDIWNATKYANSCCQNIDQSFPGFHGSEMWNPNTDLSEDCLYLNVWIPAPKPKNATVLIWIYGGGFQTGTSSLHVYDGKFLARVERVIVVSMNYRVGALGFLALPGNPEAPGNMGLFDQQLALQWVQKNIAAFGGNPKSVTLFGESAGAASVSLHLLSPGSHSLFTRAILQSGSFNAPWAVTSLYEARNRTLNLAKLTGCSRENETEIIKCLRNKDPQEILLNEAFVVPYGTPLSVNFGPTVDGDFLTDMPDILLELGQFKKTQILVGVNKDEGTWFLVYGAPGFSKDNNSIITRKEFQEGLKIFFPGVSEFGKESILFHYTDWVDDQRPENYREALGDVVGDYNFICPALEFTKKFSEWGNNAFFYYFEHRSSKLPWPEWMGVMHGYEIEFVFGLPLERRDNYTKAEEILSRSIVKRWANFAKYGNPNETQNNSTSWPVFKSTEQKYLTLNTESTRIMTKLRAQQCRFWTSFFPKVLEMTGNIDEAEWEWKAGFHRWNNYMMDWKNQFNDYTSKKESCVGL
B2: the “Relative Activity of butyrylcholinesterase variants (WT = 1) with enhanced cocaine hydrolase activity” value (“Relative Activity” for short) in series [1] was 7.

B3: S287G (protein, UniProt P06276 29-602, looked up, variant S287G)
Cholinesterase: EDDIIIATKNGKVRGMNLTVFGGTVTAFLGIPYAQPPLGRLRFKKPQSLTKWSDIWNATKYANSCCQNIDQSFPGFHGSEMWNPNTDLSEDCLYLNVWIPAPKPKNATVLIWIYGGGFQTGTSSLHVYDGKFLARVERVIVVSMNYRVGALGFLALPGNPEAPGNMGLFDQQLALQWVQKNIAAFGGNPKSVTLFGESAGAASVSLHLLSPGSHSLFTRAILQSGSFNAPWAVTSLYEARNRTLNLAKLTGCSRENETEIIKCLRNKDPQEILLNEAFVVPYGTPLGVNFGPTVDGDFLTDMPDILLELGQFKKTQILVGVNKDEGTAFLVYGAPGFSKDNNSIITRKEFQEGLKIFFPGVSEFGKESILFHYTDWVDDQRPENYREALGDVVGDYNFICPALEFTKKFSEWGNNAFFYYFEHRSSKLPWPEWMGVMHGYEIEFVFGLPLERRDNYTKAEEILSRSIVKRWANFAKYGNPNETQNNSTSWPVFKSTEQKYLTLNTESTRIMTKLRAQQCRFWTSFFPKVLEMTGNIDEAEWEWKAGFHRWNNYMMDWKNQFNDYTSKKESCVGL
With B3, in series [1], the “Relative Activity” value amounted to 4.1.

B4: P285Q (protein, UniProt P06276 29-602, looked up, variant P285Q)
Cholinesterase: EDDIIIATKNGKVRGMNLTVFGGTVTAFLGIPYAQPPLGRLRFKKPQSLTKWSDIWNATKYANSCCQNIDQSFPGFHGSEMWNPNTDLSEDCLYLNVWIPAPKPKNATVLIWIYGGGFQTGTSSLHVYDGKFLARVERVIVVSMNYRVGALGFLALPGNPEAPGNMGLFDQQLALQWVQKNIAAFGGNPKSVTLFGESAGAASVSLHLLSPGSHSLFTRAILQSGSFNAPWAVTSLYEARNRTLNLAKLTGCSRENETEIIKCLRNKDPQEILLNEAFVVPYGTQLSVNFGPTVDGDFLTDMPDILLELGQFKKTQILVGVNKDEGTAFLVYGAPGFSKDNNSIITRKEFQEGLKIFFPGVSEFGKESILFHYTDWVDDQRPENYREALGDVVGDYNFICPALEFTKKFSEWGNNAFFYYFEHRSSKLPWPEWMGVMHGYEIEFVFGLPLERRDNYTKAEEILSRSIVKRWANFAKYGNPNETQNNSTSWPVFKSTEQKYLTLNTESTRIMTKLRAQQCRFWTSFFPKVLEMTGNIDEAEWEWKAGFHRWNNYMMDWKNQFNDYTSKKESCVGL
For B4, in series [1], the “Relative Activity” value worked out at 2.4.

B5: A328W/S287G/F227A (protein)
chain: EDDIIIATKNGKVRGMNLTVFGGTVTAFLGIPYAQPPLGRLRFKKPQSLTKWSDIWNATKYANSCCQNIDQSFPGFHGSEMWNPNTDLSEDCLYLNVWIPAPKPKNATVLIWIYGGGFQTGTSSLHVYDGKFLARVERVIVVSMNYRVGALGFLALPGNPEAPGNMGLFDQQLALQWVQKNIAAFGGNPKSVTLFGESAGAASVSLHLLSPGSHSLFTRAILQSGSANAPWAVTSLYEARNRTLNLAKLTGCSRENETEIIKCLRNKDPQEILLNEAFVVPYGTPLGVNFGPTVDGDFLTDMPDILLELGQFKKTQILVGVNKDEGTWFLVYGAPGFSKDNNSIITRKEFQEGLKIFFPGVSEFGKESILFHYTDWVDDQRPENYREALGDVVGDYNFICPALEFTKKFSEWGNNAFFYYFEHRSSKLPWPEWMGVMHGYEIEFVFGLPLERRDNYTKAEEILSRSIVKRWANFAKYGNPNETQNNSTSWPVFKSTEQKYLTLNTESTRIMTKLRAQQCRFWTSFFPKVLEMTGNIDEAEWEWKAGFHRWNNYMMDWKNQFNDYTSKKESCVGL
modifications: Butyrylcholinesterase variant
Consider B5, for which, in series [1], the “cocaine hydrolysis activity compared to butyrylcholinesterase (in words)” value is given as “enhanced cocaine hydrolase activity”, the “increase in cocaine hydrolysis activity relative to butyrylcholinesterase” value is reported as “ninety-one” and the “Relative Activity” value is 91.

B6: P285S (protein, UniProt P06276 29-602, looked up, variant P285S)
Cholinesterase: EDDIIIATKNGKVRGMNLTVFGGTVTAFLGIPYAQPPLGRLRFKKPQSLTKWSDIWNATKYANSCCQNIDQSFPGFHGSEMWNPNTDLSEDCLYLNVWIPAPKPKNATVLIWIYGGGFQTGTSSLHVYDGKFLARVERVIVVSMNYRVGALGFLALPGNPEAPGNMGLFDQQLALQWVQKNIAAFGGNPKSVTLFGESAGAASVSLHLLSPGSHSLFTRAILQSGSFNAPWAVTSLYEARNRTLNLAKLTGCSRENETEIIKCLRNKDPQEILLNEAFVVPYGTSLSVNFGPTVDGDFLTDMPDILLELGQFKKTQILVGVNKDEGTAFLVYGAPGFSKDNNSIITRKEFQEGLKIFFPGVSEFGKESILFHYTDWVDDQRPENYREALGDVVGDYNFICPALEFTKKFSEWGNNAFFYYFEHRSSKLPWPEWMGVMHGYEIEFVFGLPLERRDNYTKAEEILSRSIVKRWANFAKYGNPNETQNNSTSWPVFKSTEQKYLTLNTESTRIMTKLRAQQCRFWTSFFPKVLEMTGNIDEAEWEWKAGFHRWNNYMMDWKNQFNDYTSKKESCVGL
As for B6, the “Relative Activity” value in series [1] came to 1.9.

B7: A328W/F227A (protein)
chain: EDDIIIATKNGKVRGMNLTVFGGTVTAFLGIPYAQPPLGRLRFKKPQSLTKWSDIWNATKYANSCCQNIDQSFPGFHGSEMWNPNTDLSEDCLYLNVWIPAPKPKNATVLIWIYGGGFQTGTSSLHVYDGKFLARVERVIVVSMNYRVGALGFLALPGNPEAPGNMGLFDQQLALQWVQKNIAAFGGNPKSVTLFGESAGAASVSLHLLSPGSHSLFTRAILQSGSANAPWAVTSLYEARNRTLNLAKLTGCSRENETEIIKCLRNKDPQEILLNEAFVVPYGTPLSVNFGPTVDGDFLTDMPDILLELGQFKKTQILVGVNKDEGTWFLVYGAPGFSKDNNSIITRKEFQEGLKIFFPGVSEFGKESILFHYTDWVDDQRPENYREALGDVVGDYNFICPALEFTKKFSEWGNNAFFYYFEHRSSKLPWPEWMGVMHGYEIEFVFGLPLERRDNYTKAEEILSRSIVKRWANFAKYGNPNETQNNSTSWPVFKSTEQKYLTLNTESTRIMTKLRAQQCRFWTSFFPKVLEMTGNIDEAEWEWKAGFHRWNNYMMDWKNQFNDYTSKKESCVGL
modifications: Butyrylcholinesterase variant
Regarding B7, in series [1], the “cocaine hydrolysis activity compared to butyrylcholinesterase (in words)” value is “enhanced cocaine hydrolase activity”, the “increase in cocaine hydrolysis activity relative to butyrylcholinesterase” value is on record as “sixty-eight” and the “Relative Activity” value amounted to 68.
